Target: Hsf1-StrepTag II;Ssa1 (Hsp70) (Saccharomyces cerevisiae;Saccharomyces …, UniProt P10961;P10591 1-833;1-642, |)
Assay: EMSA; 0.25 uM complex, 0.05 uM probe; 10 mM Tris-HCl pH 7.5, 50 mM KCl, 2.5 mM DTT, 0.25% Tween 20, 20 min at 20 C; 6% DNA retardation gel in TBE (modified: 1 mM MgCl2, no DTT listed, 0.7% agarose)
Conditions: protein: recombinant;recombinant; tags: C-terminal StrepTag II;6xHis-SUMO removed by Ulp1; chain copies: 3;1; blunt

Sequence of Hsf1-StrepTag II;Ssa1 (Hsp70) (P10961 whole entry, chain 1 of 2): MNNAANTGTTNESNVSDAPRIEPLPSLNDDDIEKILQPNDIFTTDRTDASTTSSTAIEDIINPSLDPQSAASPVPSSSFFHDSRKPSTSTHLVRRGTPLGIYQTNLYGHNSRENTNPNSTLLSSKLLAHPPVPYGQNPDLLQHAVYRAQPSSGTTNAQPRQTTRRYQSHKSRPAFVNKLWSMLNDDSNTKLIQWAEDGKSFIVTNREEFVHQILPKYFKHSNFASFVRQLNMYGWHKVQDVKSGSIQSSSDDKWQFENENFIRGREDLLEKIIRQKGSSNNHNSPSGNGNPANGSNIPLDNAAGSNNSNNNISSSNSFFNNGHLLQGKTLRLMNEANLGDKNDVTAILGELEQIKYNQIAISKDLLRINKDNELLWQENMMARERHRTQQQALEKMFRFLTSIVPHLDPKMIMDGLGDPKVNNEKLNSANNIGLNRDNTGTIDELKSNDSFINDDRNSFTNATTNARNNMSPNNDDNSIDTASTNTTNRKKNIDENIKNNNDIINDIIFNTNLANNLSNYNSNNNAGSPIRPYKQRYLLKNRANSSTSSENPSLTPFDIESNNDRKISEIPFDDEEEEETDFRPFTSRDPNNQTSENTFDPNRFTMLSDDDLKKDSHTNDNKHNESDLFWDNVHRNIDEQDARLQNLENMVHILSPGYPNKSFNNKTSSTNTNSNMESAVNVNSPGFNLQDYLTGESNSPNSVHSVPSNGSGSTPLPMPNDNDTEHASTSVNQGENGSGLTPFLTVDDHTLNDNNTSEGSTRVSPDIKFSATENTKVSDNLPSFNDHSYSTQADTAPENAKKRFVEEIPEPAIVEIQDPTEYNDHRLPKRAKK
Sequence of Hsf1-StrepTag II;Ssa1 (Hsp70) (P10591 whole entry, chain 2 of 2): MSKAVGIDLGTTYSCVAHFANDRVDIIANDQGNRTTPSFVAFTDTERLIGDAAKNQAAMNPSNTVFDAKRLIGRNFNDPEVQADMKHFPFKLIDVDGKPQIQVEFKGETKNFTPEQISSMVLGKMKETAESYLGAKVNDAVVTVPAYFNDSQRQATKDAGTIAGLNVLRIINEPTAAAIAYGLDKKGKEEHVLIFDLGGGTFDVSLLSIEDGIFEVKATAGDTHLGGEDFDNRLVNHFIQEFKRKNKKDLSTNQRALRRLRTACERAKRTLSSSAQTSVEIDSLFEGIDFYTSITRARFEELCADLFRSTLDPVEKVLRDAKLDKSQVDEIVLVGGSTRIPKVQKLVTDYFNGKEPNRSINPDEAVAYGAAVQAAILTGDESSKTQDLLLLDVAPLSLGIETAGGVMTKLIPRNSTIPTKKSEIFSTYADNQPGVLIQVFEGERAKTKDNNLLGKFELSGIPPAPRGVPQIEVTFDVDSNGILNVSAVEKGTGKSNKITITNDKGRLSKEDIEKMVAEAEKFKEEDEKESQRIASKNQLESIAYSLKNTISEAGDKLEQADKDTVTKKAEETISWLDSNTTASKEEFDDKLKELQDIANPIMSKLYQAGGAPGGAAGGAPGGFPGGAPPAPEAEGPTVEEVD

B1: HSE-DY682 (dsDNA)
DNA 1: TCGATTTTCCAGAACGTTCCATCGGC
DNA 2: GCCGATGGAACGTTCTGGAAAATCGA
binding result: binds
